One molecule from patent publication US20250270308A1 (UCB, published 2025) can be followed below.

This experiment has as its target T1, human TNFα in complex with compound (1) (human, UniProt P01375 77-233).
T1 construct: also called human TNFα + compound (1); compound-distorted human TNFα
Put plainly: size exclusion HPLC.

T1 sequence (P01375 77-233 limits assumed, one chain of several): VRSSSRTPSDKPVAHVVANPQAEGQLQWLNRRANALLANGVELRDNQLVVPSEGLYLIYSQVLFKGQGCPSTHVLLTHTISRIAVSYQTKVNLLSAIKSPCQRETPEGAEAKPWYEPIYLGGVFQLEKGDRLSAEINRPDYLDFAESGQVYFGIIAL

B1: CA185_01979 mouse Fab (no hinge) (Fab, V domains shown)
VH: EVHLVESGPGLVKPSQSLSLTCSVTGYSITNSYWDWIRKFPGNKMEWMGYINYSGSTGYNPSLKSRISISRDTSNNQFFLQLNSITTEDTATYYCARGTYGYNAYHFDYWGRGVMVTVSS
VL: DIQMTQSPASLSASLEEIVTITCQASQDIGNWLSWYQQKPGKSPHLLIYGTTSLADGVPSRFSGSRSGTQYSLKISGLQVADIGIYVCLQAYSTPFTFGSGTKLEIKR
notes: also called CA185_01979 mFab; CA185-01979 Fab fragment
For B1, the stoichiometry is 1 Fab per TNFα trimer.
